# Results reported in patent US20040072184.
# T1: GST-SGK2 fusion protein
# T1 chain: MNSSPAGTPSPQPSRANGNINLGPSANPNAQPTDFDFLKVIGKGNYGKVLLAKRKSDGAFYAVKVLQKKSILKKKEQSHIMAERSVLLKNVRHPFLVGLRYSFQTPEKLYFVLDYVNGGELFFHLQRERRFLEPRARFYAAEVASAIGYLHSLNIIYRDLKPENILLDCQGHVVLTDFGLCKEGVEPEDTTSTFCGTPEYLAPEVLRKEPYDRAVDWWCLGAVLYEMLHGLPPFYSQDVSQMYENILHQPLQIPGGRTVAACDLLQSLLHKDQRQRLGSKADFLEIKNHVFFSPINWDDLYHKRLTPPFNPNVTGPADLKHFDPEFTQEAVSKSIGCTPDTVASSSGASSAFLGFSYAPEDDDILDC
# T2: Syntide 2
# T2 chain: PLARTLSVAGLPGKK
# T3: Calmodulin Dependent Protein Kinase Substrate
# T3 chain: PLSRTLSVSS
# T4: CREBtide
# T4 chain: KRREILSRRPSYR
# T5: PKB-sub peptide
# T5 chain: CKRPRAASFAE
# B1: GST-DM-PK fusion protein (protein)
# chain: MSAEVRLRRLQQLVLDPGFLGLEPLLDLLLGVHQELGASELAQDKYVADFLQWAEPIVVRLKEVRLQRDDFEILKVIGRGAFSEVAVVKMKQTGQVYAMKIMNKWDMLKRGEVSCFREERDVLVNGDRRWITQLHFAFQDENYLYLVMEYYVGGDLLTLLSKFGERIPAEMARFYLAEIVMAIDSVHRLGYVHRDIKPDNILLDRCGHIRLADFGSCLKLRADGTVRSLVAVGTPDYLSPEILQAVGGGPGTGSYGPECDWWALGVFAYEMFYGQTPFYADSTAETYGKIVHYKEHLSLPLVDEGVPEEARDFIQRLLCPPETRLGRGGAGDFRTHPFFFGLDWDGLRDSVPPFTPDFEGATDTCNFDLVEDGLTAMVSGGGETLSDIREGAPLGVHLPFVGYSYSCMALRDSEVPGPTPMEVEAEQLLEPHVQAPSLEPSVSPQDETAEVAVPAAVPAAEAEAEVTLRELQEALEEEVLTRQSLSREMEAIRTDNQNFASQLREAEARNRDLEAHVRQLQERMELLQAEGATAVTGVPSPRATDPPSHLDGPPAVAVGQCPLVGPGPMHRRHLLLPARVPRPGLSEALSLLLFAVVLSRAAALGCIGLVAHAGQLTAVWRRPGAARAP
# B2: His-tag PDK1 (protein)
# chain: MARTTSQLYDAVPIQSSVVLCSCPSPSMVRTQTESSTPPGIPGGSRQGPAMDGTAAEPRPGAGSLQHAQPPPQPRKKRPEDFKFGKILGEGSFSTVVLARELATSREYAIKILEKRHIIKENKVPYVTRERDVMSRLDHPFFVKLYFTFQDDEKLYFGLSYAKNGELLKYIRKIGSFDETCTRFYTAEIVSALEYLHGKGIIHRDLKPENILLNEDMHIQITDFGTAKVLSPESKQARANSFVGTAQYVSPELLTEKSACKSSDLWALGCIIYQLVAGLPPFRAGNEYLIFQKIIKLEYDFPEKFFPKARDLVEKLLVLDATKRLGCEEMEGYGPLKAHPFFESVTWENLHQQTPPKLTAYLPAMSEDDEDCYGNYDNLLSQFGCMQVSSSSSSHSLSASDTGLPQRSGSNIEQYIHDLDSNSFELDLQFSEDEKRLLLEKQAGGNPWHQFVENNLILKMGPVDKRKGLFARRRQLLLTEGPHLYYVDPVNKVLKGEIPWSQELRPEAKNFKTFFVHTPNRTYYLMDPSGNAHKWCRKIQEVWRQRYQSHPDAAVQ
# B3: X-press-CaMK-X1 fusion protein (protein)
# chain: MGRKEEDDCSSWKKQTTNIRKTFIFMEVLGSGAFSEVFLVKQRLTGKLFALKCIKKSPAFRDSSLENEIAVLKKIKHENIVTLEDIYESTTHYYLVMQLVSGGELFDRILERGVYTEKDASLVIQQVLSAVKYLHENGIVHRDLKPENLLYLTPEENSKIMITDFGLSKMEQNGIMSTACGTPGYVAPEVLAQKPYSKAVDCWSIGVITYILLCGYPPFYEETESKLFEKIKEGYYEFESPFWDDISESAKDFICHLLEKDPNERYTCEKALSHPWIDGNTALHRDIYPSVSLQIQKNFAKSKWRQAFNAAAVVHHMRKLHMNLHSPGVRPEVENRPPETQASETSRPSSPEITITEAPVLDHSVALPALTQLPCQHGRRPTAPGGRSLNCLVNGSLHISSSLVPMHQGSLAAGPCGCCSSCLNIGSKGKSSYCSEPTLLKKANKKQNFKSEVMVPVKASGSSHCRAGQTGVCLIM
# B4: Histidine tagged CaMK-X1 expressed in Sf9 cells (protein)
# chain: B3 chain
# B5: GST-SGK2 fusion protein (protein)
# chain: T1 chain
# Assays:
# GST-SGK2 fusion protein = molecular target: T1, GST-SGK2 fusion protein
# Syntide 2 = molecular target: T2, Syntide 2
# [1] = molecular target: T3, Calmodulin Dependent Protein Kinase …
# CREBtide = molecular target: T4, CREBtide
# PKB-sub peptide = molecular target: T5, PKB-sub peptide
# Chain of PDK1 peptide (chain, as listed by the source): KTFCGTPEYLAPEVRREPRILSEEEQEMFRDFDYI
protein,measurement,setting,value
B1,in vitro kinase assay with DM-PK purified from E. coli,MBP,MBP and Histone H1 were both phosphorylated by purified DM-PK in these assays
same,in vitro kinase assay with DM-PK purified from E. coli,Histone H1,MBP and Histone H1 were both phosphorylated by purified DM-PK in these assays
B2,"32P phosphorylation of SGK2 after incubation with PDK1, SDS-PAGE",GST-SGK2 fusion protein,"SGK2 activated by PKD1 was significantly phosphorylated, while non-activated SGK2 was not"
same,in vitro kinase activity of SGK2 after activation by PDK1,GST-SGK2 fusion protein,the PDK1 activated SGK2 had significantly higher kinase activity compared to non-activated SGK2
B3,in vitro kinase assay (32P incorporation) with immunoprecipitated CaMK-X1,Syntide 2,CaMK-X1 phosphorylated CREBtide and Syntide 2 in vitro
same,in vitro kinase assay (32P incorporation) with immunoprecipitated CaMK-X1,[1],CaMK-X1 could not phosphorylate control peptide
same,in vitro kinase assay (32P incorporation) with immunoprecipitated CaMK-X1,CREBtide,CaMK-X1 phosphorylated CREBtide and Syntide 2 in vitro
B4,in vitro kinase assay (32P incorporation) with Ni2+ column purified CaMK-X1,Syntide 2,CREBtide and Syntide 2 are phosphorylated by the purified CaMK-X1
same,in vitro kinase assay (32P incorporation) with Ni2+ column purified CaMK-X1,[1],Syntide 2and CREBtide had higher incorporation of ^32p than the control peptide
same,in vitro kinase assay (32P incorporation) with Ni2+ column purified CaMK-X1,CREBtide,CREBtide and Syntide 2 are phosphorylated by the purified CaMK-X1
B5,in vitro kinase assay (32P incorporation) with purified SGK2,PKB-sub peptide,PKB-sub had significant incorporation of ^32P
same,in vitro kinase assay (32P incorporation) with purified SGK2,PDK1 peptide,addition of same amount of control peptide (PDK1 peptide) had no significant incorporation
